# Laboratory results as given in patent US20240197897A1, “HETEROTANDEM BICYCLIC PEPTIDE COMPLEXES” (Bicycle Tx Limited, priority 2021, published 2024).
# Starred links: 1 amine or outer side, 2 acyl side, 3 side chain; linkers in the order of their positions; H or OH if unused. Positions of bridges follow the written chain, without caps; N, C: chain ends. Non-standard residues stand in square brackets, D forms with d. Chains are numbered I, II in the order given. No end group written: not given here. *: point of attachment. TBMT = 2,4,6-tris(bromomethyl)-s-triazine, molecular scaffold, C(c1nc(C[*:2])nc(C[*:3])n1)[*:1]; TATA = O=C(CC[*:1])N1CN(C(=O)CC[*:2])CN(C(=O)CC[*:3])C1; Hyp = O=C(O)[C@@H]1C[C@@H](O)CN1; hArg = N=C(N)NCCCC[C@H](N)C(=O)O; Cba = N[C@@H](CC1CCC1)C(=O)O; Pent4ynoyl = C#CCCC(=O)*
# B1: heterotandem bicyclic peptide complex BCY15923 (peptide)
# peptide 1: A[hArg]DC[Hyp]LVNPLCLHP[dD]W[hArg]C
# peptide 2: ACDLTTHNCQWGICAK(Pent4ynoyl)
# modifications: linker I:4-I:11-I:18, II:2-II:9-II:14 via TATA; also: EphA2:NKp46 1:2, two copies of chain 2 on the linker, X5, X17: HyP or HArg, linker at chain B 16 to a chain's N-terminus via N-(acid-PEG3)-N-bis(PEG3-azide) linker
# B2: heterotandem bicyclic peptide complex BCY15911 (peptide)
# peptide 1: A[hArg]DC[Hyp]LVNPLCLHP[dD]W[hArg]C
# peptide 2: ACVGLEELGPCSDLCAK(Pent4ynoyl)
# modifications: linker I:4-I:11-I:18 via TATA; linker II:2-II:11-II:15 via TBMT; also: EphA2:CD16a 1:2, two copies of chain 2 on the linker, X5, X17: HyP or HArg, linker at chain B 17 to a chain's N-terminus via N-(acid-PEG3)-N-bis(PEG3-azide) linker
# B3: heterotandem bicyclic peptide complex BCY20793 (peptide)
# peptide 1: A[hArg]DC[Hyp]LVNPLCLHP[dD]W[hArg]C
# peptide 2: Ac-CY[Cba]PDYLC[dA]DEYCK(Pent4ynoyl)
# peptide 3: ACRWHFSEPCGAWCAK(Pent4ynoyl)
# modifications: linker I:4-I:11-I:18, II:1-II:8-II:13 via TATA; linker III:2-III:10-III:14 via TBMT; also: three peptides joined on N-(PEG3-acid)-N-(PEG3-azide)-N-(PEG3-NH-AcAz) linker (triazole to PYA of chains 2 and 3)
# Key:
# [1] = NK cytotoxicity assay (NK:HT1080-luc co-culture, luciferase readout); type: cell-based, human; details: NK:HT1080-luc co-culture, 24 hours, four-parameter logistic regression; FIGS. 2-4, 6-8, 10; read-out: EC50 NK cytotoxicity (tumor cell killing)
# Description: (§1) Heterotandem bicyclic peptide complexes were evaluated for NK functional readouts (cytotoxicity and cytokine secretion) in NK-tumor cell line co-cultures.
# (§2) NK cells were isolated using a negative isolation kit (STEMCELL™ Technologies 17955) from the total PBMC population purified from whole blood. NK cell pellet was then resuspended in DMEM medium (Corning™ 10-013-CV) with 10% heat-inactivated fetal bovine serum (FBS; Corning® 35-011-CV), 10 mM HEPES (Gibco™ 15-630-080), and 1% Penicillin Streptomycin (Corning™ 30-002-CI), and 50 IU/mL human IL-2 (Miltenyi Biotec® 130-097-748), at a concentration of 4×10^5 cells/mL. For the NK cell cytotoxicity assays, 50 μL (2×10^4) of cell suspension was plated in the 96-well plate (Grenier® Bio One™ 655090) containing 50 μl (4×10^3) HT1080-luc cells (ATCC® CCL-121-luc2) in DMEM (Gibco™ 11875-093; with L-glutamine) with 10% heat-inactivated fetal bovine serum (FBS; Corning® 35-011-CV), 10 mM HEPES (Gibco™ 15-630-080), and 1% Penicillin Streptomycin (Corning™ 30-002-CI). […] The plates were then incubated for 24 hours at 37° C., 5% CO2. Post-incubation, plates was centrifuged at 250×g for 5 minutes and 100 μl supernatant discarded. Samples were then incubated 10 minutes with 50 μl Bright-Glo™ Luciferase Assay system (Promega™ E2620). Luminescence upon excitation at 570 nm was read using a CLARIOstar® plate-reader with MARS Data Analysis Software™. Data was fit to a four-parameter non-linear regression in GraphPad Prism™ 8.0.2 to generate an EC50 value.
# [2] = system: HT1080-luc cells; assay: as above; type: cell-based, human; details: in comparison to NK:HT1080-luc co-culture without heterotandem complex (NK-TICA)
# Description: as §1, §2
# [3] = system: NK cells; assay: Degranulation assay (CD107a surface expression on NK cells co-cultured with A549); type: cell-based, human; details: for upregulation of CD107a on NK cell surface: NK cells with A549 cells, post-treatment, FIG. 1
# Description: Tumor cells can be recognized and killed by CD8+T-cytotoxic and NK cells through the immune secretion of lytic granules that kill target cells. This process involves the fusion of the granule membrane with the cytoplasmic membrane of the immune effector cell, resulting in surface exposure of CD107a (LAMP1). Membrane expression of CD107a constitutes a marker of immune cell activation and cytotoxic degranulation. EphA2/NKp46 or EphA2/CD16a heterotandem bicyclic peptide complexes were evaluated for activation of NK cells using a degranulation assay.
# On the day of the experiment, medium was prepared by supplementing RPMI-1640 (Gibco™ 11875-093; with L-glutamine) with 10% heat-inactivated fetal bovine serum (FBS; Corning® 35-011-CV), 10 mM HEPES (Gibco™ 15-630-080), and 1% Penicillin Streptomycin (Corning™ 30-002-CI), herein referred to as working medium. Previously isolated human peripheral blood mononuclear cells (PBMCs), from whole blood, were quick thawed in a water bath and washed once at 500 rpm for 5 minutes in 10 mL of prewarmed working medium. PBMC pellet was then resuspended to concentration of 5×10^6 cells/mL in working medium and rested overnight (12-18 hours) horizontally in a tissue-culture coated flask (T-183; CELLTREAT Scientific 229351). Moreover, Ephrin type-A receptor (EphA2) expressing human lung carcinoma cell line A549 (ATCCR CCL-185; cells were grown and maintained according to manufacturer's recommendation) were detached from the culture vessel using Trypsin/EDTA and washed once at 500 rpm for 5 minutes in 15 mL of prewarmed working medium. Cell pellet was then resuspended in working medium at a concentration of 1×10^5 cells/mL. Subsequently, 100 μL of cell suspension was plated in a flat-bottom tissue-culture coated 96-well plate (Greiner CellStar® 655180) and rested overnight (12-18 hours).
# Post-overnight incubation, PBMCs were removed from the flask and washed once at 500 rpm for 5 minutes in 10 mL of prewarmed working medium. […]
# [4] = target: NKp46 (human) (UniProt O76036); assay: cell-based or functional assay
# [5] = target: EPH receptor A2 (ephrin type-A receptor 2) (human) (UniProt P29317); assay: cell-based or functional assay
# [6] = target: FcγRIIIA (also known as CD16a) (human) (UniProt P08637); assay: cell-based or functional assay
# Chain of FcγRIIIA (also known as CD16a) (human) (P08637 17-254): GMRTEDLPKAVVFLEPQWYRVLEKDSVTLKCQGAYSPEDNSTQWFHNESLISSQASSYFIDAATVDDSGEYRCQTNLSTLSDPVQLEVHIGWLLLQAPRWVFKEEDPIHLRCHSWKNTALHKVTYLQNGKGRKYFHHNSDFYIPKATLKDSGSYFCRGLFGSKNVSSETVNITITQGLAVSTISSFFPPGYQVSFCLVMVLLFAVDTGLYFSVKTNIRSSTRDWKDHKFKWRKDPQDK
# Chain of EPH receptor A2 (ephrin type-A receptor 2) (human) (P29317 24-976): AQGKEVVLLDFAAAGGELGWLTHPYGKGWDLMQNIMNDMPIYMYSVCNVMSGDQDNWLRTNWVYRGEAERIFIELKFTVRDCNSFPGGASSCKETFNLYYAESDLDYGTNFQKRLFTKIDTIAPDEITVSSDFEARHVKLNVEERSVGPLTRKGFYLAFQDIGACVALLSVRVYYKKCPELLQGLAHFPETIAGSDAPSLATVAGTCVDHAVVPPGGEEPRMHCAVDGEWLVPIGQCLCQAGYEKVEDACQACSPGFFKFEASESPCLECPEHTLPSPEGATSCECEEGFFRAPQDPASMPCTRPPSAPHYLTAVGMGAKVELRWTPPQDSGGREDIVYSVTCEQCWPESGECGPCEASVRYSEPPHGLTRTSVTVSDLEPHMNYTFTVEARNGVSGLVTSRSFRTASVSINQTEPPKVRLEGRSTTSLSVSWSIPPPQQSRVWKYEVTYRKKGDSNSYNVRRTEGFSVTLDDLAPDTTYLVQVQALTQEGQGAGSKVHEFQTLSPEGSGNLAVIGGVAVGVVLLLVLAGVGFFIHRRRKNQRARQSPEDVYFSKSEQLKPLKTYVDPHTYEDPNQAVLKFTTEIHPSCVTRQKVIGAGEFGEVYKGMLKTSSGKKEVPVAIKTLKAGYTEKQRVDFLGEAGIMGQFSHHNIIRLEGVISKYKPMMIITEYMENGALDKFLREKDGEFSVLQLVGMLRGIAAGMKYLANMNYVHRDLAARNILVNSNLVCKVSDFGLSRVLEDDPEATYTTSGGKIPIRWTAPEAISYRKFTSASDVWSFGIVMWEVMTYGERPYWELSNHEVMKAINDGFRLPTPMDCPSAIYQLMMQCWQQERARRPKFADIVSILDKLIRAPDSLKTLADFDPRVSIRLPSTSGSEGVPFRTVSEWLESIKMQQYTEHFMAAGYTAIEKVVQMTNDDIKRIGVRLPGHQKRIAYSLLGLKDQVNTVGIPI
# Chain of NKp46 (human) (O76036 22-304): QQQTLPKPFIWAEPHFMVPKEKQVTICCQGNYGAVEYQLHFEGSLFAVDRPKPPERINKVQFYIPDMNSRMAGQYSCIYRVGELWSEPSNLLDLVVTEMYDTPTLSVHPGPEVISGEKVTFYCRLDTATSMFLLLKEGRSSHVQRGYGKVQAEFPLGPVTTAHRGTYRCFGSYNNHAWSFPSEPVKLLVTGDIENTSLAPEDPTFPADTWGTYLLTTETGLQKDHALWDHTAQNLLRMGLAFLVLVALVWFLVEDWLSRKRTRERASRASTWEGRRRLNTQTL
molecule,measurement,setting,value
CC(C)C[C@@H]1NC(=O)[C@H](Cc2ccc(O)cc2)NC(=O)[C@H](CC(=O)O)NC(=O)[C@@H]2CCCN2C(=O)[C@H](CC(C)C)NC(=O)[C@H](Cc2ccc(O)cc2)NC(=O)[C@@H](NC(=O)[C@H](C)N)CSCCC(=O)N2CN3CN(C2)C(=O)CCSC[C@@H](C(=O)N[C@@H](C)C(=O)N[C@H](CCCCNC(=O)CCc2cn(CCOCCOCCOCCN(CCOCCOCCOCCC(=O)N[C@@H](C)C(=O)N[C@@H](CCCCNC(=N)N)C(=O)N[C@@H](CC(=O)O)C(=O)N[C@H]4CSCCC(=O)N5CN6CN(C5)C(=O)CCSC[C@H](NC(=O)[C@H](CC(C)C)NC(=O)[C@@H]5CCCN5C(=O)[C@H](CC(N)=O)NC(=O)[C@H](C(C)C)NC(=O)[C@H](CC(C)C)NC(=O)[C@@H]5C[C@@H](O)CN5C4=O)C(=O)N[C@@H](CC(C)C)C(=O)N[C@@H](Cc4c[nH]cn4)C(=O)N4CCC[C@H]4C(=O)N[C@H](CC(=O)O)C(=O)N[C@@H](Cc4c[nH]c5ccccc45)C(=O)N[C@@H](CCCCNC(=N)N)C(=O)N[C@H](C(N)=O)CSCCC6=O)CCOCCOCCOCCn4cc(CCC(=O)NCCCC[C@@H](NC(=O)[C@H](C)NC(=O)[C@@H]5CSCCC(=O)N6CN7CN(C6)C(=O)CCSC[C@H](NC(=O)[C@H](CC(C)C)NC(=O)[C@H](Cc6ccc(O)cc6)NC(=O)[C@H](CC(=O)O)NC(=O)[C@@H]6CCCN6C(=O)[C@H](CC(C)C)NC(=O)[C@H](Cc6ccc(O)cc6)NC(=O)[C@@H](NC(=O)[C@H](C)N)CSCCC7=O)C(=O)NCC(=O)N[C@@H](CC(=O)O)C(=O)N[C@@H](CCC(=O)O)C(=O)N[C@@H](Cc6ccc(O)cc6)C(=O)N5)C(N)=O)nn4)nn2)C(N)=O)NC(=O)[C@H](Cc2ccc(O)cc2)NC(=O)[C@H](CCC(=O)O)NC(=O)[C@H](CC(=O)O)NC(=O)CNC(=O)[C@H](CSCCC3=O)NC1=O [BCY15664],EC50,[1],0.021 nM
same,"effect on tumor cell killing by NK cells, in words",[2],dose-dependent NK cell response to kill
same,upregulation of CD107a on NK cell surface,[3],dose-dependent upregulation of CD107a
"BCY15911: EphA2 specific peptide BCY9594 linked to two CD16a specific peptides (BCY13886) via N-(acid-PEG3)-N-bis(PEG3-azide) linker (peptide 1 A[hArg]DC[Hyp]LVNPLCLHP[dD]W[hArg]C; peptide 2 ACVGLEELGPCSDLCAK(Pent4ynoyl); linker I:4-I:11-I:18 via TATA; linker II:2-II:11-II:15 via TBMT; also: chain 1 N-terminus and chain 2 K(PYA) joined through N-(acid-PEG3)-N-bis(PEG3-azide) linker, two copies of chain 2)",upregulation of CD107a on NK cell surface,[3],dose-dependent upregulation of CD107a
same,EC50,"[3]; NK cells with EphA2 expressing A549 cells, 4 hours, flow cytometry, read-out: EC50 Degranulation Geometric Mean CD107a",99.8 nM
B1,"EC50, NK cytotoxicity assay (HT1080-luc luminescence)",[4],44 pM
same,"EC50, NK cytotoxicity assay (HT1080-luc luminescence)",[5],44 pM
B2,EC50 Degranulation Geometric Mean CD107a,[6],99.8 nM
same,EC50 Degranulation Geometric Mean CD107a,[5],99.8 nM
B3,"EC50, NK cytotoxicity assay (HT1080-luc luminescence)",[4],6.5 pM
same,"EC50, NK cytotoxicity assay (HT1080-luc luminescence)",[6],6.5 pM
